Results reported in publication PMC10951451 (Current Therapeutic Research, Clinical and Experimental, 2024).
Where two headings read alike, the source gives them in different places.

Assay type: in vivo, Norwegian domestic pigs (Sus scrofa domesticus)
Conditions: for AUC0–∞ with AUC of porcine insulin subtracted: mean (SD)

insulin aspart
AUC0–∞ with AUC of porcine insulin subtracted (glucagon group: 10 IU insulin aspart sc + 100 µg glucagon, n = 6): 7908 (1159) mU/L/min | Median AUC0–∞ plasma insulin concentration (glucagon group: 10 IU insulin aspart sc + 100 µg glucagon): 8419 mU/L/min | AUC0–∞ with AUC of porcine insulin subtracted (placebo group: 10 IU insulin aspart sc + saline, 1 of 6 pigs excluded): 5372 (994) mU/L/min | Median AUC0–∞ plasma insulin concentration (placebo group: 10 IU insulin aspart sc + saline): 6211 mU/L/min
